According to US20200207853A1 (PHANES THERAPEUTICS, published 2020):

B1: H2L3 (antibody, V domains shown)
VH: QVQLVQSGAEVKKPGASVKLSCKASGYTFTSYWMHWVRQAPGQGLEWMGNIDPSDSETHYNQKFKDRVTLTVDTSTSTAYMELSSLRSEDTAVYYCSRWGYYGKSAMDYWGQGTLVTVSS
VL: AVQLTQSPSFLSASVGQRITINCRASKSISKYLAWYQEKPGKANKLLIYSGSTLQSGIPSRFSGSGSGTDFTLTISSLQPEDFAMYYCQQHNEYPWTFGGGTKVEIK
notes: also called humanized anti-CD47 mAb H2L3
B2: H1L2 (antibody, V domains shown)
VH: QVQLVQSGAEVKKPGASVKVSCKASGYTFTSYWMHWVRQAPGQGLEWMGNIDPSDSETHYNQKFKDRVTLTVDTSTSTVYMELSSLRSEDTAVYYCSRWGYYGKSAMDYWGQGTLVTVSS
VL: AVQLTQSPSFLSASVGQRITINCRASKSISKYLAWYQQKPGKANKLLIYSGSTLQSGVPSRFSGSGSGTEFTLTISSLQPEDFAMYYCQQHNEYPWTFGGGTKVEIK
notes: Humanized from mouse 13B18A; also called humanized anti-CD47 mAb H1L2
B3: H1L3 (antibody, V domains shown)
VH: QVQLVQSGAEVKKPGASVKVSCKASGYTFTSYWMHWVRQAPGQGLEWMGNIDPSDSETHYNQKFKDRVTLTVDTSTSTVYMELSSLRSEDTAVYYCSRWGYYGKSAMDYWGQGTLVTVSS
VL: AVQLTQSPSFLSASVGQRITINCRASKSISKYLAWYQEKPGKANKLLIYSGSTLQSGIPSRFSGSGSGTDFTLTISSLQPEDFAMYYCQQHNEYPWTFGGGTKVEIK
notes: also called humanized anti-CD47 mAb H1L3
B4: H1L4 (antibody, V domains shown)
VH: QVQLVQSGAEVKKPGASVKVSCKASGYTFTSYWMHWVRQAPGQGLEWMGNIDPSDSETHYNQKFKDRVTLTVDTSTSTVYMELSSLRSEDTAVYYCSRWGYYGKSAMDYWGQGTLVTVSS
VL: AVQITQSPSFLSASVGQTITINCRASKSISKYLAWYQEKPGKANKLLIYSGSTLQSGIPSRFSGSGSGTDFTLTISSLEPEDFAMYYCQQHNEYPWTFGGGTKVEIK
notes: also called humanized anti-CD47 mAb H1L4
B5: H2L1 (antibody, V domains shown)
VH: QVQLVQSGAEVKKPGASVKLSCKASGYTFTSYWMHWVRQAPGQGLEWMGNIDPSDSETHYNQKFKDRVTLTVDTSTSTAYMELSSLRSEDTAVYYCSRWGYYGKSAMDYWGQGTLVTVSS
VL: AVQLTQSPSFLSASVGDRVTITCRASKSISKYLAWYQQKPGKANKLLIYSGSTLQSGVPSRFSGSGSGTEFTLTISSLQPEDFAMYYCQQHNEYPWTFGGGTKVEIK
notes: also called humanized anti-CD47 mAb H2L1
B6: H2L4 (antibody, V domains shown)
VH: QVQLVQSGAEVKKPGASVKLSCKASGYTFTSYWMHWVRQAPGQGLEWMGNIDPSDSETHYNQKFKDRVTLTVDTSTSTAYMELSSLRSEDTAVYYCSRWGYYGKSAMDYWGQGTLVTVSS
VL: AVQITQSPSFLSASVGQTITINCRASKSISKYLAWYQEKPGKANKLLIYSGSTLQSGIPSRFSGSGSGTDFTLTISSLEPEDFAMYYCQQHNEYPWTFGGGTKVEIK
notes: also called humanized anti-CD47 mAb H2L4
B7: H3L2 (antibody, V domains shown)
VH: QVQLVQSGAEVKKPGASVKLSCKASGYTFTSYWMHWVRQAPGQGLEWIGNIDPSDSETHYNQKFKDRATLTVDTSTSTAYMELSSLRSEDTAVYYCSRWGYYGKSAMDYWGQGTLVTVSS
VL: AVQLTQSPSFLSASVGQRITINCRASKSISKYLAWYQQKPGKANKLLIYSGSTLQSGVPSRFSGSGSGTEFTLTISSLQPEDFAMYYCQQHNEYPWTFGGGTKVEIK
notes: also called humanized anti-CD47 mAb H3L2
B8: H3L4 (antibody, V domains shown)
VH: QVQLVQSGAEVKKPGASVKLSCKASGYTFTSYWMHWVRQAPGQGLEWIGNIDPSDSETHYNQKFKDRATLTVDTSTSTAYMELSSLRSEDTAVYYCSRWGYYGKSAMDYWGQGTLVTVSS
VL: AVQITQSPSFLSASVGQTITINCRASKSISKYLAWYQEKPGKANKLLIYSGSTLQSGIPSRFSGSGSGTDFTLTISSLEPEDFAMYYCQQHNEYPWTFGGGTKVEIK
notes: also called humanized anti-CD47 mAb H3L4
B9: H3L9 (antibody, V domains shown)
VH: QVQLVQSGAEVKKPGASVKLSCKASGYTFTSYWMHWVRQAPGQGLEWIGNIDPSDSETHYNQKFKDRATLTVDTSTSTAYMELSSLRSEDTAVYYCSRWGYYGKSAMDYWGQGTLVTVSS
VL: DVQLTQSPSFLSASVGDRVTITCRASKSISKYLAWYQQKPGKANKLLIYSGSTLQSGVPSRFSGSGSGTEFTLTISSLQPEDFAMYYCQQHNEYPWTFGGGTKVEIK
notes: also called humanized anti-CD47 mAb H3L9
B10: H6L5 (antibody, V domains shown)
VH: QIQLVQSGAEVKKPGASVKVSCKASGYTFTAYYINWVRQAPGQRLEWIGWIYPGSGNTKYNEKFKGRVTLTVDTSASTAYIELSSLRSEDTAVYFCARRGPWYFDVWGQGTTVTVSS
VL: EIVMTQSPATLSLSPGERATLSCRASENVGTYVSWYQQKPGQAPNLLIYGASNRYTGIPARFSGSGSGTDFTLTISSLQPEDFAVYHCGQTYSYPLTFGQGTKLEIK
notes: also called humanized anti-CD47 mAb H6L5
B11: H5L5 (antibody, V domains shown)
VH: QIQLVQSGAEVKKPGASVKVSCKASGYTFTAYYINWVRQAPGQRLEWIGWIYPGSGNTKYNEKFKGRVTLTVDTSASTAYIELSSLRSEDTAVYYCARRGPWYFDVWGQGTTVTVSS
VL: EIVMTQSPATLSLSPGERATLSCRASENVGTYVSWYQQKPGQAPNLLIYGASNRYTGIPARFSGSGSGTDFTLTISSLQPEDFAVYHCGQTYSYPLTFGQGTKLEIK
notes: also called humanized anti-CD47 mAb H5L5
B12: H6L7 (antibody, V domains shown)
VH: QIQLVQSGAEVKKPGASVKVSCKASGYTFTAYYINWVRQAPGQRLEWIGWIYPGSGNTKYNEKFKGRVTLTVDTSASTAYIELSSLRSEDTAVYFCARRGPWYFDVWGQGTTVTVSS
VL: EIVMTQSPATLSLSPGERATLSCKASENVGTYVSWYQQKPGQSPNLLIYGASNRYTGIPDRFSGSGSGTDFTLTISSLQPEDFAVYHCGQTYSYPLTFGQGTKLEIK
notes: also called humanized anti-CD47 mAb H6L7
B13: H6L8 (antibody, V domains shown)
VH: QIQLVQSGAEVKKPGASVKVSCKASGYTFTAYYINWVRQAPGQRLEWIGWIYPGSGNTKYNEKFKGRVTLTVDTSASTAYIELSSLRSEDTAVYFCARRGPWYFDVWGQGTTVTVSS
VL: NIVMTQSPATLSLSPGERATLSCKASENVGTYVSWYQQKPGQSPNLLIYGASNRYTGVPDRFSGSGSATDFTLTISSLQPEDFADYHCGQTYSYPLTFGQGTKLEIK
notes: also called humanized anti-CD47 mAb H6L8
B14: H8L10 (antibody, V domains shown)
VH: QVQLVQSGAEVKKPGASVKVSCKASGYTFTSYWMHWVRQAPGQGLEWIGNIDPSDSETHYAQKFQGRVTLTVDKSTSTVYMELSSLRSEDTAVYYCAGTDLAYWGQGTLVTVSS
VL: EIVMTQSPGTLSLSPGERATLSCHASQNINVWLSWYQQKPGQAPRLLIYKASNLHTGIPDRFSGSGSGTDFTLTISRLEPEDFAVYYCQQGQSYPFTFGQGTKVEIK
notes: Humanized from mouse 17C6A; also called humanized anti-CD47 mAb H8L10

biological target: T1, Recombinant human CD47(ECD)-HIS (human, UniProt Q08722 19-139, limits assumed); assay: competition ELISA: blocking of SIRPα binding to CD47(ECD)-HIS
T1 construct: also called huCD47-HIS; not shown: HIS tag
T1 sequence (Q08722 19-139 limits assumed): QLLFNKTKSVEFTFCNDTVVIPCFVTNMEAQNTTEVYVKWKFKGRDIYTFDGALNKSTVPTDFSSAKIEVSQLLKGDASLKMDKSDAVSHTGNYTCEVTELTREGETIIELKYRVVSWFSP

Question: With B1 as the binder, how does the IC50 read?
Answer: 9.56 nM

Question: B2 was tested. Which IC50 did it give?
Answer: 6.8 nM

Question: Which IC50 does the source give for B3 here?
Answer: 7.43 nM

Question: Which IC50 does the source give for B4 here?
Answer: 8.09 nM

Question: For B5, which IC50 is on record?
Answer: 4.73 nM

Question: Which IC50 does the source give for B6 here?
Answer: 6.52 nM

Question: How did the IC50 turn out when B7 was run?
Answer: 7.88 nM

Question: Which IC50 does the source give for B8 here?
Answer: 5.35 nM

Question: How did the IC50 turn out when B9 was run?
Answer: 9.6 nM

Question: For B10, which IC50 is on record?
Answer: 9.67 nM

Question: Which IC50 does the source give for B11 here?
Answer: 15.1 nM

Question: With B12 as the binder, how does the IC50 read?
Answer: 39.2 nM

Question: For B13, which IC50 is on record?
Answer: 13.2 nM

Question: B14 was tested. Which IC50 did it give?
Answer: 1.05 nM
